Target: human METTL5, C-terminally His6-tagged (human, UniProt Q9NRN9)
Experiment: pull-down

Sequence of human METTL5, C-terminally His6-tagged (Q9NRN9 whole entry): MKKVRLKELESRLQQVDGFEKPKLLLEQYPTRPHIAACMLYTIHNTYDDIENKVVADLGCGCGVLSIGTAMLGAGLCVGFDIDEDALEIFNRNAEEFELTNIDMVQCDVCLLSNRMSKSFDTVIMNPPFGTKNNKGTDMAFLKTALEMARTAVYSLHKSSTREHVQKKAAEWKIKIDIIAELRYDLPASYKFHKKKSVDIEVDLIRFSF

- binding result: binds
B1: human TRMT112, untagged (natural protein)
chain: MKLLTHNLLSSHVRGVGSRGFPLRLQATEVRICPVEFNPNFVARMIPKVEWSAFLEAADNLRLIQVPKGPVEGYEENEEFLRTMHHLLLEVEVIEGTLQCPESGRMFPISRGIPNMLLSEEETES

— paper PMC6735865 (Nucleic Acids Research, 2019)
